Positions count from the first letter of the chain named. Names may count otherwise.
System: Lenti-X 293T cells
Assay: YFP fluorescence quenching anion reporter plate reader assay of engineered receptors stimulated with acetylcholine or a non-native ligand
Assay type: cell-based
Conditions: for percent quench of YFP fluorescence, 10 uM ach: acetylcholine 10 uM; for percent quench of YFP fluorescence, 100 uM ach: acetylcholine 100 uM; for percent quench of YFP fluorescence, 300 uM ach: acetylcholine 300 uM; for percent quench of YFP fluorescence, 1 mM ach: acetylcholine 1 mM; for percent quench of YFP fluorescence, 3 mM ach: acetylcholine 3 mM; for percent quench of YFP fluorescence, 30 uM ach: acetylcholine 30 uM
Summary of the method: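 Lenti-X 293T cells carrying a YFP anion reporter were transiently transfected with channel DNA and assayed the next day in HEPES-buffered ECS at pH 7.2. Ligand (acetylcholine or non-native ligand) was added in NaI-substituted ECS. Percent quench was the mean of the last 10 s relative to the 15 s pre-addition baseline.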

B1: CODA1053: engineered chimeric LGIC receptor, R101M, L131A in SEQ ID NO: 33 (protein)
chain: MRCSPGGVWLALAASLLHVSLQGEFQRKLYKELVKNYNPLERPVANDSQPLTVYFSLSLLQIMDVDEKNQVLTTNIWLQMSWTDHYLQWNVSEYPGVKTVMFPDGQIWKPDILLYNSADERFDATFHTNVAVNSSGHCQYLPPGIFKSSCPMDLKNFPMDVQTCKLKFGSWSYGGWSLDLQMQEADISGYIPNGEWDLVGIPGKRSERFYECCKEPYPDVTFTVTMRRRMGYYLIQMYIPSLLIVILSWISFWINMDAAPARVGLGITTVLTMTTQSSGSRASLPKVSYVKAIDIWMAVCLLFVFSALLEYAAVNFVSRQHKELLRFRRKRRHHKSPMLNLFQEDEAGEGRFNFSAYGMGPACLQAKDGISVKGANNSNTTNPPPAPSKSPEEMRKLFIQRAKKIDKISRIGFPMAFLIFNMFYWIIYKIVRREDVHNQ
modifications: synthetic sequence of chimeric LGIC
- YFP fluorescence quenching using CNL001 (1 nM CNL001, first column): −8.554%
- YFP fluorescence quenching using CNL001 (1 nM CNL001, second column): −13.711%
- YFP fluorescence quenching using TC-5619/Bradanicline (1 nM brd): 0.008%
- YFP fluorescence quenching using TC-5619/Bradanicline (3 nM brd): 43.21%
- YFP fluorescence quenching using Varenicline (3 nM var, first column): 74.835
- YFP fluorescence quenching using Varenicline (3 nM var, second column): 76.119
- YFP fluorescence quenching using CNL001 (10 nM CNL001, first column): 39.631%
- YFP fluorescence quenching using CNL001 (10 nM CNL001, second column): 66.809%
- YFP fluorescence quenching using TC-5619/Bradanicline (10 nM brd): 77.672%
- YFP fluorescence quenching using TC-5619/Bradanicline (30 nM brd): 76.277%
- YFP fluorescence quenching using Varenicline (30 nM var, first column): 77.608
- YFP fluorescence quenching using Varenicline (30 nM var, second column): 79.015
- YFP fluorescence quenching using CNL001 (50 nM CNL001, first column): 82.122%
- YFP fluorescence quenching using CNL001 (50 nM CNL001, second column): 82.031%
- YFP fluorescence quenching using ABT-126 (50 nM abt): −27.01%
- YFP fluorescence quenching using CNL001 (100 nM CNL001, first column): 83.312%
- YFP fluorescence quenching using CNL001 (100 nM CNL001, second column): 83.986%
- YFP fluorescence quenching using ABT-126 (100 nM abt): −18.76%
- YFP fluorescence quenching using TC-5619/Bradanicline (100 nM brd): 76.856%
- YFP fluorescence quenching using ABT-126 (300 nM abt): −17.8%
- YFP fluorescence quenching using TC-5619/Bradanicline (300 nM brd): 75.32%
- YFP fluorescence quenching using Varenicline (300 nM var, first column): 80.71
- YFP fluorescence quenching using Varenicline (300 nM var, second column): 79.002
- YFP fluorescence quenching using Varenicline (500 nM var, first column): 78.709
- YFP fluorescence quenching using Varenicline (500 nM var, second column): 78.884
- YFP fluorescence quenching using CNL001 (1 uM CNL001, first column): 84.363%
- YFP fluorescence quenching using CNL001 (1 uM CNL001, second column): 83.877%
- YFP fluorescence quenching using ABT-126 (1 uM abt): −6.55%
- YFP fluorescence quenching using Varenicline (1 uM var, first column): 79.688
- YFP fluorescence quenching using Varenicline (1 uM var, second column): 80
- percent quench of YFP fluorescence, 10 uM ach: −3.98%
- percent quench of YFP fluorescence, 100 uM ach: −11%
- percent quench of YFP fluorescence, 300 uM ach: −7.92%
- percent quench of YFP fluorescence, 500 uM ach (acetylcholine 500 uM): 7.36%
- percent quench of YFP fluorescence, 1 mM ach: 57.28%
- percent quench of YFP fluorescence, 3 mM ach: 60.54%
- percent quench of YFP fluorescence, 10 mM ach (acetylcholine 10 mM): 79.46%

B2: CODA1138: engineered chimeric LGIC receptor, W77F, R101F, L131D in SEQ ID NO: 33 (protein)
chain: B1 chain with W77F, M101F, A131D
modifications: synthetic sequence of chimeric LGIC
- YFP fluorescence quenching using CNL001 (1 nM CNL001, first column): −6.175%
- YFP fluorescence quenching using CNL001 (1 nM CNL001, second column): 5.89%
- YFP fluorescence quenching using CNL002 (1 nM CNL002): −2.209%
- YFP fluorescence quenching using Varenicline (3 nM var, first column): 3.893
- YFP fluorescence quenching using Varenicline (3 nM var, second column): 1.107
- YFP fluorescence quenching using CNL001 (10 nM CNL001, first column): −2.032%
- YFP fluorescence quenching using CNL001 (10 nM CNL001, second column): 7.601%
- YFP fluorescence quenching using CNL002 (10 nM CNL002): 43.044%
- YFP fluorescence quenching using Varenicline (30 nM var, first column): 0.972
- YFP fluorescence quenching using Varenicline (30 nM var, second column): 0.872
- YFP fluorescence quenching using CNL001 (50 nM CNL001, first column): 9.263%
- YFP fluorescence quenching using CNL001 (50 nM CNL001, second column): 4.423%
- YFP fluorescence quenching using CNL002 (50 nM CNL002): 73.418%
- YFP fluorescence quenching using ABT-126 (50 nM abt): −11.71%
- YFP fluorescence quenching using CNL001 (100 nM CNL001, first column): 24%
- YFP fluorescence quenching using CNL001 (100 nM CNL001, second column): 30.448%
- YFP fluorescence quenching using CNL002 (100 nM CNL002): 81.66%
- YFP fluorescence quenching using ABT-126 (100 nM abt): −5.13%
- YFP fluorescence quenching using ABT-126 (300 nM abt): 15.09%
- YFP fluorescence quenching using Varenicline (300 nM var, first column): 2.282
- YFP fluorescence quenching using Varenicline (300 nM var, second column): −0.288
- YFP fluorescence quenching using Varenicline (500 nM var, first column): 3.637
- YFP fluorescence quenching using Varenicline (500 nM var, second column): −1.804
- YFP fluorescence quenching using CNL001 (1 uM CNL001, first column): 73.823%
- YFP fluorescence quenching using CNL001 (1 uM CNL001, second column): 73.271%
- YFP fluorescence quenching using CNL002 (1 uM CNL002): 81.69%
- YFP fluorescence quenching using ABT-126 (1 uM abt): 56.63%
- YFP fluorescence quenching using Varenicline (1 uM var, first column): −1.84
- YFP fluorescence quenching using Varenicline (1 uM var, second column): 6.36
- YFP fluorescence quenching using ABT-126 (10 uM abt): 75.93%
- percent quench of YFP fluorescence, 10 uM ach: −12.92%
- percent quench of YFP fluorescence, 30 uM ach: −15.36%
- percent quench of YFP fluorescence, 100 uM ach: −19.35%
- percent quench of YFP fluorescence, 300 uM ach: −14.79%
- percent quench of YFP fluorescence, 1 mM ach: 37.5%
- percent quench of YFP fluorescence, 3 mM ach: 61.73%

B3: CODA1157: engineered chimeric LGIC receptor, Q139E, S172D in SEQ ID NO: 33 (protein)
chain: B1 chain with M101R, A131L, Q139E, S172D
modifications: synthetic sequence of chimeric LGIC
- YFP fluorescence quenching using CNL001 (1 nM CNL001, first column): 68.362%
- YFP fluorescence quenching using CNL001 (1 nM CNL001, second column): 69.495%
- YFP fluorescence quenching using Varenicline (3 nM var, first column): −0.225
- YFP fluorescence quenching using Varenicline (3 nM var, second column): −1.954
- YFP fluorescence quenching using CNL001 (10 nM CNL001, first column): 75.078%
- YFP fluorescence quenching using CNL001 (10 nM CNL001, second column): 74.193%
- YFP fluorescence quenching using Varenicline (30 nM var, first column): 1.269
- YFP fluorescence quenching using Varenicline (30 nM var, second column): 5.972
- YFP fluorescence quenching using CNL001 (50 nM CNL001, first column): 77.481%
- YFP fluorescence quenching using CNL001 (50 nM CNL001, second column): 77.205%
- YFP fluorescence quenching using ABT-126 (50 nM abt): −26.77%
- YFP fluorescence quenching using CNL001 (100 nM CNL001, first column): 77%
- YFP fluorescence quenching using CNL001 (100 nM CNL001, second column): 77.042%
- YFP fluorescence quenching using CNL002 (100 nM CNL002): 80.62%
- YFP fluorescence quenching using ABT-126 (100 nM abt): −24.64%
- YFP fluorescence quenching using ABT-126 (300 nM abt): −10.64%
- YFP fluorescence quenching using Varenicline (300 nM var, first column): 6.84
- YFP fluorescence quenching using Varenicline (300 nM var, second column): 5.943
- YFP fluorescence quenching using Varenicline (500 nM var, first column): 8.717
- YFP fluorescence quenching using Varenicline (500 nM var, second column): 6.41
- YFP fluorescence quenching using CNL001 (1 uM CNL001, first column): 78.2%
- YFP fluorescence quenching using CNL001 (1 uM CNL001, second column): 76.244%
- YFP fluorescence quenching using CNL002 (1 uM CNL002): 81.32%
- YFP fluorescence quenching using ABT-126 (1 uM abt): 19.57%
- YFP fluorescence quenching using Varenicline (1 uM var, first column): 5.635
- YFP fluorescence quenching using Varenicline (1 uM var, second column): 7.068
- YFP fluorescence quenching using ABT-126 (10 uM abt): 55.64%
- percent quench of YFP fluorescence, 10 uM ach: −36.89%
- percent quench of YFP fluorescence, 30 uM ach: −37.78%
- percent quench of YFP fluorescence, 100 uM ach: −25.67%
- percent quench of YFP fluorescence, 300 uM ach: −18.94%
- percent quench of YFP fluorescence, 1 mM ach: 16.38%
- percent quench of YFP fluorescence, 3 mM ach: 45.71%
